Patent US12286624B2, “Method for generating a gene editing vector with fixed guide RNA pairs” (Johann Wolfgang Goethe-Universität Frankfurt am Main, priority 2018, dated 2025)

What was measured:
Cdk2 = assay: Depletion of endogenous Cdk2 by fixed-pair gRNA constructs (immunoblot); format: cell-based, human; settings: RPE1 cells, compared with either single gRNA
Procedure: (§1) GFP-expressing hTERT-RPE1 cells were transduced with them for 48 hours, after which a selection pressure (puromycin) for another 4 days was applied before the cells were analyzed by FACS and immunoblotting for which wildtype (wt) and GFP-positive cells (GFP) served as controls. […] In addition, GFP deletion efficiency was confirmed by immunoblotting of GFP, confirming the FACS finding (FIG. 15b). Fluorescent proteins expressed in human cells reflect an artificial situation, the inventors therefore asked if endogenously expressed genes in RPE1 cells would similarly be depleted more efficiently by two gRNAs. To address this question, RPE1 cells were transduced with fixed-pair gRNA constructs encoding for NHT/NHT, NHT/Cdk2, Cdk2/NHT, or Cdk2/Cdk2.
Preparation of lysates and immunoblot analyses were performed as described previously using Tris lysis buffer (50 mM Tris-HCl (pH 7.8), 150 mM NaCl, 1% IGEPAL CA-630) containing 20 mM NaF, 20 mM β-glycerophosphate, 0.3 mM Na-vanadate, 20 μg/ml RNase A, 20 μg/ml DNase and 1/300 protease inhibitor cocktail (Sigma-Aldrich, P8340) and phosphatase inhibitor cocktail #2 (Sigma-Aldrich, P5726). […] Protein levels were visualized with Pierce ECL Western Blotting Substrate on a BioRad ChemiDoc MP imaging system and analyzed with Bio-Rad Image Lab software (version 4.1 build 16).

[1] = test system: GFP-expressing hTERT-RPE1 cells; assay: GFP depletion by FACS after lentiviral transduction with enhanced 3Cs fixed-pair gRNA constructs; format: cell-based, human; settings: transduced 48 hours, then puromycin selection another 4 days
Procedure: as §1
RPE1 cells were seeded at an appropriate density for each experiment with a maximal confluency of 60-70% in DMEM/F12 (Thermo Fisher Scientific), supplemented with 10% FBS and 1% penicillin-ptreptomycin (Sigma). At the day of transduction, polybrene was added to the media to a final concentration of 8 μg/mL, as well as viral supernatant according to the previously determined viral titer. The next morning, the media was replaced with fresh media and the cells were subjected to antibiotic selection or experimental analysis.
All samples were analyzed on a FACSCanto II flow cytometer (BD Biosciences), and data were processed by FlowJo software (FlowJo, LLC). Gating was carried out on the basis of viable and single cells that were identified on the basis of their scatter morphology.

Row | Molecule | depletion of endogenous Cdk2 (Cdk2) | GFP-positive cells by FACS [1]
1 | Cdk2/Cdk2: fixed-pair gRNA construct with two gRNAs targeting Cdk2 (nucleic acid, expressed or natural sequence) guide: GAAAGGACGAAACACCGACAGGTTGCCAGTAAAAACAGTTTAGAGACGCTCGTCTCTAAACCTCCCGTCAACTTGTTTCTGCGAGGTACCCAAGCG | more efficiently depleted | 
2 | GFP2-NHT: 3Cs fixed-pair construct of one GFP-targeting gRNA and one NHT control gRNA (nucleic acid) guide: GAAAGGACGAAACACCGTCAGGATCAGGGTGTATGGCGTTTTAGAGCTATGCTTTTTTAAAAAAGCATAGCTCTAAAACCGATGTTGTGGCGGATCTTGCGAGGTACCCAAGCG |  | strong reduction of GFP-positive cells
3 | NHT-GFP2: 3Cs fixed-pair construct of one NHT control gRNA and one GFP-targeting gRNA (nucleic acid) guide: GAAAGGACGAAACACCGGAAGGGCATCGACTTCAAGGGTTTTAGAGCTATGCTTTTTTAAAAAAGCATAGCTCTAAAACGCATGTTGTGGCGGATCTTGCGAGGTACCCAAGCG |  | strong reduction of GFP-positive cells
4 | GFP2-GFP1: fixed-pair combination of two different GFP-targeting gRNAs (nucleic acid, expressed or natural sequence, fixed-pair combination of two different GFP-targeting gRNAs) guide: GAAAGGACGAAACACCGGAAGGGCATCGACTTCAAGGGTTTTAGAGCTATGCTTTTTTAAAAAAGCATAGCTCTAAAACCGATGTTGTGGCGGATCTTGCGAGGTACCCAAGCG |  | below the detection limit
